Patent US20020058267A1 (Pfizer, published 2002)

Tests used:
[1] = target: forty-residue β-amyloid peptide (human Aβ), aged (aggregated) unless said otherwise (human) (UniProt P05067); test: cell-based or functional assay
[2] = target: T1, BBP1 intracellular loop (pOZ339), Gal4 DNA-binding domain fusion (yeast; human, UniProt P04386 1-147); test: yeast 2-hybrid, two independently derived clones of each strain against vector
T1 construct: also called BBP1 intracellular region; predicted intracellular domain of BBP1
Description: BBP1ΔC was made by using the pACT2-specific oligo #6 with antisense oligo #9 (5′-CTCGAG TCAAGATATGGGCTTGAAAAAAC). After TA cloning, isolation of the EcoRI-XhoI fragment and cloning into pACT2, the resultant plasmid, pEK219, expressed BBP1 from residue 68 to 175. Sequences encoding the BBP1 intracellular loop were amplified using oligonucleotides #10 (5′-CCTTCC ATGGAAGTGGCAGTCGCATTGTCT) plus #11 (5′-[…] TCAAAACCCTACAGTGCAAAAC). This product, containing BBP1 codons 185 to 217, was digested with NcoI+XhoI and cloned into pAS2 cleaved with NcoI +SalI to generate pOZ339. Construction of all Gα protein expression plasmids utilized the BamHI site near the center of each rat cDNA sequence as the site of fusion in pACT2 (Kang, Y. -S., Kane, J., Kurjan, J., Stadel, J., and Tipper, D. (1990) Mol Cell Biol 10, 2582-2590). Sense primers annealed to sequences 5′ of the BamHI site; antisense primers annealed to sequences 3′ of the stop codon and included a SalI restriction site. Primers were: […]
Structural analysis of BBP1 indicated it contained a structural motif known to be a Gα protein activating sequence in the related G protein-coupled receptors. […] The predicted intracellular domain of BBP1 was expressed as a Gal4 DNA-binding domain with portions of rat Gαs, Gαo, or Gαl2 expressed as Gal4 activation domain fusion proteins. […]

[3] = target: T2, human BAP42 fused to the Gal4 DNA-binding domain (BAP^BD; expression plasmid pEK162) (yeast; human, UniProt P04386 1-147; P05067 672-713); test: yeast 2-hybrid
T2 construct: The screening strain also expressed free BAP42 (pEK149); also called BAP fusion protein; human BAP fusion protein
Method: These fusion proteins were assayed with the BAP fusion protein and responses compared to those of strains expressing the larger BBP1Δtm protein. The BBP1ΔC protein induced a weak Y2H response (compare BBP1ΔC to vector, FIG. 4), but the BBP1ΔN protein, containing the first tm domain and adjacent amino-proximal sequences produced a response only slightly weaker than that observed with BBP1Δtm.
Bioassays: Strains were grown overnight in 2 ml SC medium lacking leucine and tryptophan to a density of approximately 7×10⁷ cells per ml. Cells were counted and 10-fold serial dilutions made from […] in sterile water. These samples were spotted in 5 μl aliquots on SC medium lacking leucine, tryptophan and histidine and containing 25 mM 3-amino-triazole. Plates were incubated at 30° C. for 2 to 3 days. Positive protein/protein interactions were identified by increased prototrophic growth compared to control strains expressing the Gal4 DNA-binding domain fusion protein plus an irrelevant transcriptional activation domain fusion protein (or simply containing the pACT vector without inserted sequences). This assay method was highly reproducible and provided for the detection of subtle inductions of growth mediated by the specific interaction between target proteins. […]

Molecule: BBP1 expressed in transfected cells from the BBP1 expression plasmid pBBP (pOZ363) (receptor)
- % apoptotic nuclei, Ntera2 neurons, 10 µM aged Aβ for 48 hrs [1]: 22.3%
- % apoptotic nuclei, Ntera2 stem cells, 10 µM aged Aβ for 48 hrs [1]: 12.3%
- cell viability after aggregated Aβ peptide for 48 hrs (loss of total cells) (% of total cells) [1]: 22

B1: rat Gαs C-terminal region (pOZ345), Gal4 activation domain fusion (other, UniProt P63095 235-394, looked up, not shown: large carriers)
chain: IQCFNDVTAIIFVVASSSYNMVIREDNQTNRLQEALNLFKSIWNNRWLRTISVILFLNKQDLLAEKVLAGKSKIEDYFPEFARYTTPEDATPEPGEDPRVTRAKYFIRDEFLRISTASGDGRHYCYPHFTCAVDTENIRRVFNDCRDIIQRMHLRQYELL
notes: range 235-394; also called Gas
- binding result [2]: binds

B2: rat Gαi2 C-terminal region (pOZ348), Gal4 activation domain fusion (other, UniProt P04897 213-355, looked up, not shown: large carriers)
chain: IHCFEGVTAIIFCVALSAYDLVLAEDEEMNRMHESMKLFDSICNNKWFTDTSIILFLNKKDLFEEKITQSPLTICFPEYTGANKYDEAASYIQSKFEDLNKRKDTKEIYTHFTCATDTKNVQFVFDAVTDVIIKNNLKDCGLF
notes: range 213-355; also called Gai2
- binding result [2]: binds

B3: BBP1ΔN (pEK216), Gal4 activation domain fusion (other, not shown: small tags and cut ends)
chain: PKINDATQEPVNCTNYTAHVSCFPAPNITCKDSSGNETHFTGNEVGFFKPISCRNVNGYSYKVAVALSLFLGWLGADRF
notes: Encodes the first tm domain plus the preceding 52 amino acids; also called BBP1?N (so in the source); ?N construct
- binding result [3]: binds
